Data from PMC11838012, “TRAM-LAG1-CLN8 family proteins are acyltransferases regulating phospholipid composition” (Science Advances, 2025).

Tests used:
Experiment in all cases: LC-MS/MS initial-rate acyltransferase assay
TLCD1 = target: T1, TLCD1 (Homo sapiens, UniProt Q96CP7); type: biochemical; conditions: 100 uM oleoyl-CoA; pH 7.4, 30 C, 0.05% LMNG; shares the LPE site
T1 construct: full length, C-terminal FLAG and Strep tags kept; expressed in Flp-In T-REx 293 cells; purified in LMNG; monomer in micelles
T1 sequence (Q96CP7 36-247): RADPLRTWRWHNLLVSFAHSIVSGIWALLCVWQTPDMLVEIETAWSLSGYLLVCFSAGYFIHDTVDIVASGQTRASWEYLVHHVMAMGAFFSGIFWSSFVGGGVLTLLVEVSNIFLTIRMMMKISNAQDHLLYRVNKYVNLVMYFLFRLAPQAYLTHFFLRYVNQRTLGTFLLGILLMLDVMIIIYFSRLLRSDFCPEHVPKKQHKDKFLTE

[1] = substrate: CCCCCCCC/C=C\CCCCCCCC(=O)OC[C@@H](O)COP(=O)(O)OCCN; type: biochemical, Saccharomyces cerevisiae; conditions: 100 uM palmitoleoyl-CoA, pH 7.4, 30 C, 0.05% LMNG
[2] = substrate: CCCCCCCC/C=C\CCCCCCCC(=O)OC[C@@H](O)COP(=O)(O)OCCN; type: biochemical, Homo sapiens; conditions: 100 uM oleoyl-CoA, pH 7.4, 30 C, 0.05% LMNG
[3] = substrate: CCCCCCCC/C=C\CCCCCCCC(=O)OC[C@@H](O)COP(=O)(O)OCCN; type: biochemical, Caenorhabditis elegans; conditions: 100 uM myristoyl-CoA, pH 7.4, 30 C, 0.05% LMNG

## Cc1ncc(C[n+]2csc(CCO)c2C)c(N)n1 [thiamine]
TLCD1
  LC-MS/MS initial-rate acyltransferase assay: a linear increase in the initial reaction rate (Vo) even at millimolar thiamine levels

B1: YPR114w (Saccharomyces cerevisiae S288C) (protein)
chain: MDVLLSLPQPELFKTTVIPFLANRNIIKSEAILSNLHSIFYVAIFYHIWFLFGKWILFPHLVKWKLDYDQKHNVKKDEKTTSERQAQHYKKKYTSLINQSSVHLISLLQSIVVLYYSLKFLLDPKASAEPYQTSHSRVFTENRDTQVICIFAIGYFVWDIYISTMYSTFPFVVHGIISTVVFCIGLKPYIQYYAPVFLMFELSNPSLNFRWFGIKFLPQKSKFCSLLLLLNNLTLMVVFFAARIAWGWFQIGKLCYDFYQVRNEPGFLVFDTIVILAGNFVLDILNVIWFSTMVSVAAKVLKKGESVDKVTKNEQ
notes: full length, C-terminal His tag cut off by Factor Xa; expressed in S. cerevisiae BJ2168; purified in LMNG
[1]
  Km: 16.7 µM
  kcat: 2.225 s⁻¹

B2: TLCD1 (Homo sapiens) (protein)
chain: T1 sequence (Q96CP7 36-247)
notes: full length, C-terminal FLAG and Strep tags kept; expressed in Flp-In T-REx 293 cells; purified in LMNG; monomer in micelles
[2]
  Km: 67.5 µM
  kcat: 0.348 s⁻¹

B3: FLD-1 (Caenorhabditis elegans) (protein)
chain: MRQLAELLTDLLGPVPTMFLWVIVSFAFFRALQFIVRWYLFGKWTWPNFNFFDIRNRIRRRRRGGQEAENTENPPENEAEAGEQVEQEPEPDSRDLSAIPPNKKWRISNECVSLFHSVISGLWAAYALLYYKQLVQDLVNYRCDVAINLVLMSAGYLFHDLVDLLVNEQSARIIELLFHHVVVLSAFAVTMFFNRFLGVVVFGLLMELNSIFLHSRSLLNLYGVDKKSPSFRIIALLNMVTLFAFRLCVSAYLVYFVVVSIPDLEWYVSIINGLVIASLASTNTVLTYRLLAADGLLGSRRTRRTPAATAETQVGDVESGPLRTQVEDEDHHTIGVQTIHGTTEDATQTV
notes: codon-optimised, C-terminal His tag cut off by Factor Xa; expressed in S. cerevisiae BJ2168; purified in LMNG
[3]
  Km: 10.1 µM
  kcat: 0.608 s⁻¹
